The supplement of paper PMC9732359
± gives the uncertainty stated by the source.

Assay: protein stability index of a GFP-peptide fusion (yeast GPS) (PSI 1-4); higher = more stable; sorted into four equal gates, so the index is relative within each strain
Conditions: doa10∆
Method in brief: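 Tiled yeast protein peptides of 17 residues were each joined downstream of GFP, on plasmids that also express Cherry. The pooled library was maintained in yeast, and mid-log cultures in leucine-free medium were sorted into four equal gates on the GFP/Cherry ratio. Plasmids from every gate were amplified by PCR and sequenced on Illumina, with barcodes linking reads to strains. The protein stability index of a peptide is its gate-number-weighted read frequency summed over the gates.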

Sequence	protein stability index
ILEDTATMSVFLQRIDF [RRI2]	2.78 ± 0.059
ILEDYCYFRDFEYCRID [ISW2]	2.56 ± 0.13
ILKRDFELVSDLSYIEF [ECM29]	2.54 ± 0.079
ILLTSISRERDLFTHLW [SRP68]	2.85 ± 0.13
ILRMGAFRTIESKSDDN [RRI1]	2.88 ± 0.094
ILSLEQSSRVVSLSQLL [YCS4]	1.84 ± 0.072
ILVMETSEEQTKFLAKN [SWP82]	3.01 ± 0.094
IMGFISYHNGNLKGRPY [FAS2]	3 ± 0.13
IMSTEAHVNKVTEETTK [SIR4]	2.77 ± 0.09
INAKNIAFASNYGIVEL [RRP43]	2.04 ± 0.053
INDPTNKEYTLVHGIFG [SIN4]	2.1 ± 0.09
INDRNDRAIRKTCQWYS [DIS3]	3.21 ± 0.087
INGEDPANNHQLGLQTV [SMX2]	2.93 ± 0.11
INLNVDDDILIIRPILG [SRB4]	3.42 ± 0.15
INNPVNLTIHFGGEKGK [FAS1]	2.97 ± 0.068
INSIDTTESSDLKEGLQ [GRR1]	2.54 ± 0.062
INSPMPQQAQMQQAQFQ [SNF2]	2.98 ± 0.093
INSSNEALVQAFAFCIP [YCG1]	2.18 ± 0.055
INYHQYISKAQNDQWSI [SSN2]	2.63 ± 0.058
INYLLTLAITTVTNSKF [RPN2]	2.22 ± 0.062
INYQVDSKLLPKNIEPP [SWI3]	2.92 ± 0.083
IPGLSAGVNNDNTKESK [RTT102]	3.59 ± 0.11
IPNIPPNINTWQQVTAL [GAL11]	2.96 ± 0.14
IPNQEVLQYSDWESDLH [YDL116W/NUP84]	2.1 ± 0.056
IPNRRFTLWWSPTINRA [PRP8]	2.65 ± 0.069
IPSPLSSTKPPGSVNSA [NUT1]	2.76 ± 0.056

Sequence	protein stability index
IQEIKESVELPLTHPEL [RPT2]	2.7 ± 0.073
IQEQRVKDKQSKVSDDS [RPN8]	1.97 ± 0.11
IQGISKMYSDDTLKDIS [BRN1]	3.24 ± 0.17
IQIDEETENSESIASSN [MCD1]	2.4 ± 0.071
IQPKITELKKKLDDLEN [SMC1]	3.11 ± 0.13
IQSKRLRNKIAGYTTHL [RPS17A]	3.16 ± 0.1
IRAIRKVISEILTKEVQ [RPS1A]	1.714 ± 0.013
IREIDVAGGKKALAIFV [RPS7A]	2.29 ± 0.089
IRGSDQAIPKFQMNCYA [RPN2]	1.27 ± 0.085
IRNINVQDALLTNQLYK [SNF2]	2.84 ± 0.07
IRNLTVFTMKELAQYMK [RGR1]	3.04 ± 0.24
IRNVLVTVDQYVNVAIS [SSN2]	1.21 ± 0.044
IRSSSVSLVAEATSNTN [MED4]	1.89 ± 0.076
IRVAETRGGASALIENN [YJL039C/NUP192]	2.39 ± 0.071
ISDIPYVISLSYTDAQD [YMR129W/POM152]	2.16 ± 0.066
ISFAAFILADAGLEITS [RPP1B]	1.98 ± 0.063
ISLHENKLSGILADEMG [ISW2]	2.81 ± 0.085
ISLRNNHKIIARVKAFD [SMD2]	1.79 ± 0.044
ISNNLALVFAALEHLKN [SRP68]	1.95 ± 0.051
ISPLMKSQYNMVLRNVM [SRB8]	2.32 ± 0.068
ISSLIGGFEYFLQPLLL [NUT1]	1.21 ± 0.058
ITGNKIMRILKSNGLAP [RPS13]	3.01 ± 0.14
ITHQGANSESGHYQAFI [UBP6]	3.04 ± 0.19
ITHYAVRGGNIEIMGIL [RRI1]	2.85 ± 0.1
ITIDSVVDANGCVNSLI [YMR129W/POM152]	3.01 ± 0.11
ITLHPSFFGPRMKQYLK [RPB7]	2.41 ± 0.12

Sequence	protein stability index
ITSNHKSSVPGSAELRN [RPN3]	2.69 ± 0.087
IVDPTAEQLKISLSVHT [RRP46]	1.64 ± 0.042
IVFVHSRKETSRTATWL [BRR2]	2.53 ± 0.11
IVIDVDYNKKQDRIQDV [MED1]	3.16 ± 0.15
IVKTSSGNEMPPQDAEG [RPS19A]	2.3 ± 0.25
IVNGQTFSYVDSSLQPE [YMR129W/POM152]	2.47 ± 0.05
IVNVLSKCLNLISDSNI [SWI3]	2.05 ± 0.043
IVPLHSPFLMGHPMTKS [SEC65]	2.76 ± 0.083
IVSKEYEKNFEATLESK [ESC2]	2.98 ± 0.24
IVVMDCFNLPVVGTETR [RRI1]	2.24 ± 0.13
IWDSQKFFIMIVKGNII [POP4]	1.37 ± 0.069
IWRKVPGDVLDKDAFIP [SNU114]	3.6 ± 0.28
IYDDWLDRISSYTAFSR [PRP8]	2.16 ± 0.05
IYKPLLFEIVSNADTNQ [SRB8]	1.71 ± 0.06
IYKSIFNVVDVGVDQLS [YJL039C/NUP192]	3.11 ± 0.055
IYNKMIGVLNNSSESDE [RPN13]	2.74 ± 0.14
IYQHLASHNEKDQDSQI [SRP72]	2.58 ± 0.092
IYQVPEKDLEHWLQLAK [POP1]	3.22 ± 0.12
IYRDRSTFTKHLIKCFF [ITC1]	2.11 ± 0.043
IYRYKYKVMHQIRACKD [PRP8]	2.56 ± 0.099
IYSPEGLRLDGRRWNEL [SKI6]	1.42 ± 0.16
KAAFLGSEVRLRDDTLP [COR1]	2.54 ± 0.06
KAALERLKVFEGIPPPY [RPL16A]	2.57 ± 0.096
KAELPQWYTLQSQLNVT [MED8]	2.77 ± 0.055
KAHPNFPIALQWTGGRG [FAS1]	2.62 ± 0.13
KAKIIPGNGKHASENIS [SIR4]	2.61 ± 0.11

Sequence	protein stability index
KAKRQINSGTNSANGSS [SSN3]	2.52 ± 0.057
KALILAPTRELVQQIQK [PRP28]	2.67 ± 0.087
KANISLETLEHNGAPHH [RPO21]	3.29 ± 0.16
KAPEAEQVLSAAATFPI [RPL13A]	2.97 ± 0.071
KASELKLALGIALEGYR [RPN2]	2.62 ± 0.15
KASTISRGAVSGQKAGL [RPL2A]	2.46 ± 0.044
KASVLEISPQDSIASVL [GAL11]	3.27 ± 0.09
KDFLKAVDKVISGYKKF [RPT1]	3.21 ± 0.074
KDHLLLEEEFVSNSEIL [RPT2]	2.87 ± 0.09
KDIAKRQFKEILTVKEE [RRP40]	2.2 ± 0.045
KDIIDPKLTSIFERMIE [RPN2]	2.68 ± 0.14
KDLEIRKLEISSRFKHR [GAL11]	2.87 ± 0.099
KDLVTENAYDNPLADAE [PRE4]	3.11 ± 0.09
KDNECSSFEENNDLESV [RRI2]	3.13 ± 0.16
KDQRATTPYMTKYERAR [RPO26]	2.56 ± 0.057
KDRFDIDEKSQFVETIV [RPN2]	2.15 ± 0.05
KDSVTECSKDMKEDGLS [SIR4]	3.21 ± 0.12
KDSYINANTIETAKMIE [FAS2]	3.14 ± 0.045
KDWTDTFVYILEKLIFD [SRB8]	2.39 ± 0.067
KDYEAKTKAMSLSIEEN [POP1]	2.57 ± 0.13
KDYHTLANNVESKLRDD [RPS18A]	3.29 ± 0.14
KEAALKTMIKTIEKDKM [SMC2]	2.8 ± 0.17
KEAFEEEIKQSARNYDK [SMC1]	3.21 ± 0.078
KEEFRLMISPKDEETTE [RRI2]	1.75 ± 0.069
